In US20240000786A1, “COMPOSITION FOR ENHANCING INTRA-CELLULAR NITRIC OXIDE GENERATION” (INSTITUTE OF LIFE SCIENCES, priority 2020, published 2024):

Columns and labels:
[1] = biological target: T1, recombinant human iNOS oxygenase domain (human, UniProt P35228 82-505); experiment: SPR, iNOS immobilised; KD ratio against the row rNOSIP + iNOS peptide2 (= 1)
T1 construct: It was cloned in pET22b, expressed in E. coli BL21 (DE3) and purified on Ni-NTA and by gel filtration; A His tag is implied but never described; In SPR it was immobilised on a GLC chip by amine coupling; also called riNOS; r iNOS
T1 sequence (P35228 other isoform, or with tags, fused parts or gaps limits assumed): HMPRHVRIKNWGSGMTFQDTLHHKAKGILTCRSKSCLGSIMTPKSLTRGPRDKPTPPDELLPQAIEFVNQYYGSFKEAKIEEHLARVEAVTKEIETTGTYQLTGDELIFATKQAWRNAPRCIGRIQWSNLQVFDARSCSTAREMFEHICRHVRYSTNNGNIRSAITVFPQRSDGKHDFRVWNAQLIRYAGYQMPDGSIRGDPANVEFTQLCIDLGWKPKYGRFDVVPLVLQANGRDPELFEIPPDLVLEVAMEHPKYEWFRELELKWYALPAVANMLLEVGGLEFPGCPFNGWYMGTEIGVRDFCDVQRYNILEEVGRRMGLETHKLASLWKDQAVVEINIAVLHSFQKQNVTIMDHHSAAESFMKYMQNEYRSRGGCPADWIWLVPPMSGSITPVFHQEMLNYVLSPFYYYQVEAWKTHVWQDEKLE
Protocol: (§1) Four different iNOS peptides were synthesized commercially by China peptides and iNOS peptides were used for molecular interaction studies with immobilized recombinant iNOS purified protein. The iNOS peptides mediated inhibition of rNOSIP and riNOS protein association in Bio-Rad XPR 36 surface plasmon resonance biosensor instrument. […] 250 nM of iNOS peptides was used for inhibition assay with immobilized ligand(recombinant iNOS) in SPR analysis. Similar condition and concentration of small molecules were used for inhibition of recombinant protein association with immobilized ligand. […] The molecular interaction was carried out at 20° C. and kinetic parameters were determined, after fitting the association and dissociation curves to a 1:1 (Langmuir)-binding model. […] The response curves were also recorded on control surfaces. Results were calculated after subtraction of the control values using the ProteOn Manager software.
(§2) The five small molecules bind with NOSIP and inhibit the association of recombinant NOSIP and recombinant iNOS. […] The molecular interaction was carried out at 20° C. and kinetic parameters were determined, after fitting the association and dissociation curves to a 1:1 (Langmuir)-binding model. […] The response curves were also recorded on control surfaces. Results were calculated after subtraction of the control values using the ProteOn Manager software. […]

[2] = biological target: T1, recombinant human iNOS oxygenase domain; experiment: SPR, iNOS immobilised, rNOSIP with iNOS peptide 2; this row is the reference of the fold change
[3] = biological target: T1, recombinant human iNOS oxygenase domain; experiment: SPR, iNOS immobilised, rNOSIP with small molecule CC4; KD ratio against the row rNOSIP + iNOS peptide2
Protocol: as §1, §2

[4] = biological target: T1, recombinant human iNOS oxygenase domain; experiment: SPR, iNOS immobilised, rNOSIP with small molecule CC5; KD ratio against the row rNOSIP + iNOS peptide2
Protocol: as §1, §2

[5] = biological target: T1, recombinant human iNOS oxygenase domain; experiment: SPR, iNOS immobilised, rNOSIP with small molecule CC6; KD ratio against the row rNOSIP + iNOS peptide2
Protocol: as §1, §2

[6] = biological target: T1, recombinant human iNOS oxygenase domain; experiment: SPR, iNOS immobilised, rNOSIP with small molecule CC11; KD ratio against the row rNOSIP + iNOS peptide2
Protocol: as §1, §2

[7] = biological target: T1, recombinant human iNOS oxygenase domain; experiment: SPR, iNOS immobilised, rNOSIP with small molecule CC13; KD ratio against the row rNOSIP + iNOS peptide2
Protocol: as §1, §2

[8] = biological target: T1, recombinant human iNOS oxygenase domain; experiment: SPR, iNOS immobilised, rNOSIP pre-incubated 30 min on ice with iNOS peptide 2 (competitor), 20 C, 1:1 Langmuir fit
Protocol: as §1
(§3) The five small molecules bind with NOSIP and inhibit the association of recombinant NOSIP and recombinant iNOS. […] The molecular interaction was carried out at 20° C. and kinetic parameters were determined, after fitting the association and dissociation curves to a 1:1 (Langmuir)-binding model. […] The response curves were also recorded on control surfaces. Results were calculated after subtraction of the control values using the ProteOn Manager software.

[9] = biological target: T1, recombinant human iNOS oxygenase domain; experiment: SPR (Bio-Rad ProteOn XPR36), iNOS immobilised on GLC chip by amine coupling, NOSIP as analyte, 20 C, 1:1 Langmuir fit
Protocol: (§4) Four different iNOS peptides were synthesized commercially by China peptides and iNOS peptides were used for molecular interaction studies with immobilized recombinant iNOS purified protein. The iNOS peptides mediated inhibition of rNOSIP and riNOS protein association in Bio-Rad XPR 36 surface plasmon resonance biosensor instrument. […] 250 nM of iNOS peptides was used for inhibition assay with immobilized ligand(recombinant iNOS) in SPR analysis. Similar condition and concentration of small molecules were used for inhibition of recombinant protein association with immobilized ligand. […] The rNOSIP protein was incubated with iNOS derived peptide/small molecules for 30 minutes in ice for inhibition assay before the SPR application in our study. The molecular interaction was carried out at 20° C. and kinetic parameters were determined, after fitting the association and dissociation curves to a 1:1 (Langmuir)-binding model. An activated channel without immobilized ligand was used to evaluate nonspecific binding. The response curves were also recorded on control surfaces. Results were calculated after subtraction of the control values using the ProteOn Manager software.
Manager software was used to fit the data with the Langmuir model describing a 1:1 binding stoichiometry. Ka is the association rate constant, Kd is the dissociation rate constant, and KD is the equilibrium dissociation constant, defined by the Kd/Ka ratio for the analytes—ligand binding.

[10] = biological target: T1, recombinant human iNOS oxygenase domain; experiment: SPR, iNOS immobilised, rNOSIP pre-incubated 30 min on ice with small molecule CC4 (inhibitor), 20 C, 1:1 Langmuir fit
Protocol: as §1, §3

[11] = biological target: T1, recombinant human iNOS oxygenase domain; experiment: SPR, iNOS immobilised, rNOSIP pre-incubated 30 min on ice with small molecule CC5 (inhibitor), 20 C, 1:1 Langmuir fit
Protocol: as §1, §2

[12] = biological target: T1, recombinant human iNOS oxygenase domain; experiment: SPR, iNOS immobilised, rNOSIP pre-incubated 30 min on ice with small molecule CC6 (inhibitor), 20 C, 1:1 Langmuir fit
Protocol: as §1, §2

[13] = biological target: T1, recombinant human iNOS oxygenase domain; experiment: SPR, iNOS immobilised, rNOSIP pre-incubated 30 min on ice with small molecule CC11 (inhibitor), 20 C, 1:1 Langmuir fit
Protocol: as §1, §2

[14] = biological target: T1, recombinant human iNOS oxygenase domain; experiment: SPR, iNOS immobilised, rNOSIP pre-incubated 30 min on ice with small molecule CC13 (inhibitor), 20 C, 1:1 Langmuir fit
Protocol: as §1, §2

[15] = biological target: T1, recombinant human iNOS oxygenase domain; experiment: SPR, NOSIP 1000 nM to 62.5 nM over immobilised iNOS in presence of 250 nM iNOS PP2 (competitor), Kinetic-Langmuir analysis (FIG. 2(b))
Protocol: FIG. 2 depicts inhibition of iNOS-NOSIP protein interaction by iNOS derived peptides. […] These interactions was inhibited in presence of different iNOS peptides (250 nM) viz; PP1—red line, PP2—sky blue line at bottom of graph, PP3—blue line and PP4—green line.
as §4

Fold Change (KD) [1]: 0.00144
Fold Change (KD) [2]: 1
Fold Change (KD) [3]: 176
Fold Change (KD) [5]: 142
Fold Change (KD) [6]: 164
Fold Change (KD) [7]: 110
KD (M) in presence of iNOS peptide2 [8]: 4.94e-06 M
Kd [9]: 0.00711 µM
koff [9]: 0.000681 s⁻¹
kon [9]: 95700 M⁻¹ s⁻¹
KD (M) in presence of small molecule MCULE-4640800528 (CC4) [10]: 0.00087 M
KD (M) in presence of small molecule MCULE-3765839647 (CC6) [12]: 0.000704 M
KD (M) in presence of small molecule MCULE-8094061955 (CC11) [13]: 0.000809 M
KD (M) in presence of small molecule MCULE-8395438746 (CC13) [14]: 0.000543 M
KD in presence of 250 nM iNOS PP2 [15]: 0.495 µM
Ka in presence of 250 nM iNOS PP2 [15]: 5360
Kd in presence of 250 nM iNOS PP2 [15]: 0.00265
B1: recombinant Nitric oxide synthase interacting protein (NOSIP) (other)
chain: HMTRHGKNCTAGAVYTYHEKKKDTAASGYGTQNIRLSRDAVKDFDCCCLSLQPCHDPVVTPDGYLYEREAILEYILHQKKEIARQMKAYEKQRGTRREEQKELQRAASQDHVRGFLEKESAIVSRPLNPFTAKALSGTSPDDVQPGPSVGPPSKDKDKVLPSFWIPSLTPEAKATKLEKPSRTVTCPMSGKPLRMSDLTPVHFTPLDSSVDRVGLITRSERYVCAVTRDSLSNATPCAVLRPSGAVVTLECVEKLIRKDMVDPVTGDKLTDRDIIVLQRGGTGFAGSGVKLQAEKSRPVMQALE
notes: It was synthesized by GenScript, cloned in pET22b, expressed in E. coli BL21 (DE3) and purified on Ni-NTA and by gel filtration; A His tag is implied but never described; also called rNOSIP; recombinant NOSIP
Fold Change (KD) [4]: 119
KD (M) in presence of small molecule MCULE-8469877005 (CC5) [11]: 0.000588 M
